Reference: patent US20220073617A1 (Five Prime, published 2022)

T1: human VISTA on cells (human monocytes, AML3 cells, 293T/HEK293 cells expressing full-length human VISTA) (human, UniProt Q9H7M9 33-311)
T1 sequence: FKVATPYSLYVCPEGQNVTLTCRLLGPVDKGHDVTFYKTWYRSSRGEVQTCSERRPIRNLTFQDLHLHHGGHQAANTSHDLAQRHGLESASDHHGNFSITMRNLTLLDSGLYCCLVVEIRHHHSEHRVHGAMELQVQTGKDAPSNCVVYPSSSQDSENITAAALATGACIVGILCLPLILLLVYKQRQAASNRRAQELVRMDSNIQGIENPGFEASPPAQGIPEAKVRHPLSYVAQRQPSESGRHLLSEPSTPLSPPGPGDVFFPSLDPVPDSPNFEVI

T2: cyno VISTA-ECD (His tag) (cynomolgus macaque, UniProt Q9H7M9 33-193 (human entry))
T2 construct: also called cyVISTA-His
T2 chain: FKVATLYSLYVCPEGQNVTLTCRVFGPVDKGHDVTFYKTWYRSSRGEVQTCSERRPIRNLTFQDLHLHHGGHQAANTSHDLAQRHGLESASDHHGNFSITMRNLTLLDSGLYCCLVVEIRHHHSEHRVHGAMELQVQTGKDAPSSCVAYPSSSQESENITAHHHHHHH

T3: human VISTA-Fc (hVISTA extracellular domain, amino acids 33-194 of SEQ ID NO: 1, linked to an Fc domain) (human, UniProt Q9H7M9 33-194)
T3 construct: also called WT VISTA; hVISTAFc
T3 sequence: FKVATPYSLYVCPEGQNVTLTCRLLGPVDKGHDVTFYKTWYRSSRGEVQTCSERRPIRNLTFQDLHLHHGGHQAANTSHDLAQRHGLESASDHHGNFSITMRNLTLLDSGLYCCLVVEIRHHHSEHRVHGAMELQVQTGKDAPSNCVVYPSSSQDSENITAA


Tests used:
[1] = biological target: T4, avidin (ThermoFisher Scientific catalog #21128) (UniProt P02701 25-152); experiment: SPR pH 6.0 and 7.4
[2] = biological target: T5, monovalent hVISTA-ECD (amino acids 32-193 of SEQ ID NO: 1 with a 7xHis tail) (human, UniProt Q9H7M9 33-193); experiment: SPR (FIG. 19C)
T5 construct: analyte of the SPR assays; also called huVISTA-His; hVISTA-His

[3] = biological target: T1, human VISTA on cells (human monocytes, …); experiment: cell-based or functional assay
[4] = biological target: T5, monovalent hVISTA-ECD (amino acids …); experiment: SPR 37C, 100 nM hVISTA-ECD, pH 7.4, 6.7, 6.0
[5] = biological target: T5, monovalent hVISTA-ECD (amino acids …); experiment: SPR 37C
cyno VISTA-ECD (His tag) [6] = biological target: T2, cyno VISTA-ECD (His tag); experiment: SPR 37C
[7] = biological target: T5, monovalent hVISTA-ECD (amino acids …); experiment: SPR 37C pH 6.0
cyno VISTA-ECD (His tag) [8] = biological target: T2, cyno VISTA-ECD (His tag); experiment: SPR 37C pH 6.0
[9] = biological target: T3, human VISTA-Fc (hVISTA extracellular …); experiment: BLI
[10] = biological target: BSA (Calbiochem catalog #126593) (UniProt P02769 25-607); experiment: SPR 25C pH 6.0 and 7.4
Description: (§1) The binding specificity of the '029, '761 and '767 clones to VISTA and to other high pI proteins was evaluated by SPR at neutral and acidic pH using a Biacore® T100 instrument (GE Healthcare). Protein A (ThermoFisher Scientific catalog #21181) was diluted to 20 ug/ml in 10 mM sodium acetate pH 4.5 and immobilized onto flow cells of a CM3 biosensor following the manufacturer's amine coupling protocol (GE Healthcare), targeting 800 RU immobilization density of Protein A per flow cell. SPR experiments were conducted at 25° C. using PBST (137 mM sodium chloride, 2.7 mM potassium chloride, 10 mM phosphate buffer, 0.05% Tween 20) running buffer at pH 7.4 and 6.0. Antibodies (formatted as IgG1.3 antibodies) were diluted to 50 nM in PBST pH 7.4, and were captured across active biosensor flow cells at 5 ul/min for 60 seconds. […] Two 15 second injections of 10 mM glycine pH 1.5 were used to regenerate the Protein A capture surface between assay cycles. Reference flow cell and 0 nM blank-subtracted sensorgrams were inspected using Biacore® T200 Evaluation Software v.2.0. The results are shown in […]

[11] = biological target: T4, avidin (ThermoFisher Scientific catalog …); experiment: SPR 25C pH 6.0 and 7.4
Description: as §1

[12] = biological target: T5, monovalent hVISTA-ECD (amino acids …); experiment: SPR 37C pH 7.4
cyno VISTA-ECD (His tag) [13] = biological target: T2, cyno VISTA-ECD (His tag); experiment: SPR 37C pH 7.4
[14] = biological target: T5, monovalent hVISTA-ECD (amino acids …); experiment: SPR 37C; remark: listed apart in the source
Description: For this assay, '029, '761 and '767 were reformatted as hIgG1f isotype and were expressed as both standard hIgG1f and in hIgG1f afucosylated formats to compare against the hIgG1.3f Fc. An SPR kinetics assay was conducted to measure koff and KD binding affinity measurements for VISTA Abs at acidic and physiological pH using a Biacore® T100 instrument (GE Healthcare). Protein A (ThermoFisher Scientific catalog #21181) was diluted to 20 μg/ml in 10 mM sodium acetate pH 4.5 and immobilized onto flow cells of a CM5 biosensor following the manufacturer's amine coupling protocol (GE Healthcare), targeting 2,000 RU immobilization density of Protein A per flow cell. […] Antibodies were diluted to 25 nM in PBST pH 7.4, and were captured across active biosensor flow cells at 5 ul/min for 45 seconds. […] Two 15 second injections of 10 mM glycine pH 1.5 were used to regenerate the Protein A capture surface between assay cycles. Rate constants ka (kₒₙ) and kd (koff) were derived from reference flow cell and 0 nM blank-subtracted sensorgrams, and were fit to a 1:1 binding model in Biacore® T200 Evaluation Software v.2.0. The affinity constant, KD was calculated as the ratio of rate constants koff/kₒₙ for each VISTA antibody. Ratios of koff and KD at pH 7.4/pH 6.0 were calculated to compare off-rate and affinity improvement at acidic pH relative to physiological pH.

T4 sequence (P02701 25-152 limits assumed): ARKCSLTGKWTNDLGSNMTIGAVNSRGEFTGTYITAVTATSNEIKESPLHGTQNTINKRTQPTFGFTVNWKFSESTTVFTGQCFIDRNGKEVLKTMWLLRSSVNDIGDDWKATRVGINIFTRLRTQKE
BSA (Calbiochem catalog #126593), sequence (P02769 25-607 limits assumed): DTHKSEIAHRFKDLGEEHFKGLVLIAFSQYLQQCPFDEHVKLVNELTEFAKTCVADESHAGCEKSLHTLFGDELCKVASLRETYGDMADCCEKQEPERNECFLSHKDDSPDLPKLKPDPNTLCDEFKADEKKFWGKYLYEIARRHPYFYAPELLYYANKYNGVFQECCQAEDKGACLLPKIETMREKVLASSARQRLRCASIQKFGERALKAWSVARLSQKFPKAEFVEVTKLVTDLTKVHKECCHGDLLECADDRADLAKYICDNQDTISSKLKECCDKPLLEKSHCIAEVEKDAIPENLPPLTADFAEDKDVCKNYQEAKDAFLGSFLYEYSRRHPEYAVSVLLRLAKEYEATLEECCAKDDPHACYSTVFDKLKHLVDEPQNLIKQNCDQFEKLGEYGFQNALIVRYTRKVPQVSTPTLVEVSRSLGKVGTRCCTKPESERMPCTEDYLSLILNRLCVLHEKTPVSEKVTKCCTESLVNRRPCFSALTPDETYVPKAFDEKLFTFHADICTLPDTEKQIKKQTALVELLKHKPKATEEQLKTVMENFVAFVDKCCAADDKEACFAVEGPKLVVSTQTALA

Binder	binding result [1]	KD ratio (7.4/6) [5]	kd ratio (7.4/6) [5]	KD ratio (7.4/6) (cyno VISTA-ECD (His tag) [6])	kd ratio (7.4/6) (cyno VISTA-ECD (His tag) [6])	Kd [7]	kon [7]	Kd (cyno VISTA-ECD (His tag) [8])	koff (cyno VISTA-ECD (His tag) [8])	kon (cyno VISTA-ECD (His tag) [8])	binding result [10]	binding result [11]	Kd [12]	koff [12]	kon [12]	Kd (cyno VISTA-ECD (His tag) [13])	koff (cyno VISTA-ECD (His tag) [13])	kon (cyno VISTA-ECD (His tag) [13])	also measured
VISTA.4.IgG1.3 (antibody, V domains shown, also called 41F11) VH: QVQLVESGGGLVKPGGSLRLSCAASGFTFSDYYMSWIRQAPGKGLEWVSYISNSGSPIYYADSVKGRFTISRDNAKNSLYLQMNSLRAEDTAVYYCARDLPGWYFDLWGRGTLVTVSS VL: EIVLTQSPATLSLSPGERATLSCRASQSVSSYLAWYQQKPGQAPRLLIYDASNRATGIPARFSASGSGTDFTLTISSLEPEDFAVYYCQQRNNWPRTFGQGTKVEIKR	no binding	–	–	–	–	–	–	–	–	–	–	–	–	–	–	–	–	–	–
P1-072315-1 (41F11_VH_T28P/Y50W/S55E/L96E/Y100E VK_A64G) (antibody, V domains shown) VH: QVQLVESGGGLVKPGGSLRLSCAASGFPFSDYYMSWIRQAPGKGLEWVSWISNSGEPIYYADSVKGRFTISRDNAKNSLYLQMNSLRAEDTAVYYCARDEPGWEFDLWGRGTLVTVSS VL: EIVLTQSPATLSLSPGERATLSCRASQSVSSYLAWYQQKPGQAPRLLIYDASNRATGIPARFSGSGSGTDFTLTISSLEPEDFAVYYCQQRNNWPRTFGQGTKVEIK	no binding	–	–	–	–	–	–	–	–	–	–	–	–	–	–	–	–	–	–
P1-070976 (41F11_VH_T28P/Y50W/S55E/D95H/L96E/P97E/Y100E; VK_A64G), IgG1.3 (antibody, V domains shown, also called acidic pH selective VISTA.4 progeny) VH: QVQLVESGGGLVKPGGSLRLSCAASGFPFSDYYMSWIRQAPGKGLEWVSWISNSGEPIYYADSVKGRFTISRDNAKNSLYLQMNSLRAEDTAVYYCARHEEGWEFDLWGRGTLVTVSS VL: EIVLTQSPATLSLSPGERATLSCRASQSVSSYLAWYQQKPGQAPRLLIYDASNRATGIPARFSGSGSGTDFTLTISSLEPEDFAVYYCQQRNNWPRTFGQGTKVEIKR	no binding	–	–	–	–	–	–	–	–	–	–	–	–	–	–	–	–	–	fold higher affinity at pH 6.0 than at pH 7.4 [2]: 200 fold
VISTA.5 (VISTA antibody 1, non-blocking antibody) (antibody, V domains shown, also called VISTA mAb 1; mAb 1) VH: AVQLQESGPGLVRPSQSLSLTCTVTDYSITSDYAWNWIRQFPGSKLEWLGFIGYSGNTNYNPSLESRISITRHTSKNQFFLHLNSMTTEDTATYYCARSLYGGSHWYFDVWGAGTTVTVSS VL: DIVLTQSPASLAVSLGQRATISCRGSESVEYYGTILMQWYQQKPGQPPKLLIYGASNVESGVPARFSGSGSGTDFSLNIHPVEEDDIAMYFCQQSRKVPWTFGGGTKLEIK	–	–	–	–	–	–	–	–	–	–	–	–	–	–	–	–	–	–	EC50, AML3 viability (Cell Titer Glo), endolysosome-dependent antibody drug conjugate killing assay [3]: 0.485 µg/mL; binding result [4]: binds
P1-061029.IgG1.3 (antibody, also called P1-061029 hIgG1.3f; parent) heavy: EVQLVESGGGLVQPGKSLRLSCAASGFTLDDYAMHWVRQAPGKGLEWVSGINWNSANIGYADSVKGRFTISRDNAKNSLYLQMNSLRTEDTALYYCAKVPGYSGGWIDAFDVWGQGTMVTVSSASTKGPSVFPLAPSSKSTSGGTAALGCLVKDYFPEPVTVSWNSGALTSGVHTFPAVLQSSGLYSLSSVVTVPSSSLGTQTYICNVNHKPSNTKVDKRVEPKSCDKTHTCPPCPAPEAEGAPSVFLFPPKPKDTLMISRTPEVTCVVVDVSHEDPEVKFNWYVDGVEVHNAKTKPREEQYNSTYRVVSVLTVLHQDWLNGKEYKCKVSNKALPAPIEKTISKAKGQPREPQVYTLPPSREEMTKNQVSLTCLVKGFYPSDIAVEWESNGQPENNYKTTPPVLDSDGSFFLYSKLTVDKSRWQQGNVFSCSVMHEALHNHYTQKSLSLSPG light: not shown	–	9.1	1.1	4.7	1.1	6.8 nM	980000 M⁻¹ s⁻¹	10 nM	0.0062 s⁻¹	620000 M⁻¹ s⁻¹	no binding (tested: <=10 RU, 100-10 nM)	no binding (tested: <=10 RU, 100-10 nM)	62 nM	0.0075 s⁻¹	120000 M⁻¹ s⁻¹	47 nM	0.0067 s⁻¹	140000 M⁻¹ s⁻¹	koff [7]: 0.0066 s⁻¹; binding result [9]: binds
P1-068761.IgG1.3 (antibody, also called P1-068761 hIgG1.3f) heavy: EVQLVESGGGLVQPGKSLRLSCAASGFTLEDEAMHWVRQAPGKGLEWVSGINWNSEEIGYADSVKGRFTISRDNAKNSLYLQMNSLRTEDTALYYCAKVPGYSHGWIDAEDVWGQGTMVTVSSASTKGPSVFPLAPSSKSTSGGTAALGCLVKDYFPEPVTVSWNSGALTSGVHTFPAVLQSSGLYSLSSVVTVPSSSLGTQTYICNVNHKPSNTKVDKRVEPKSCDKTHTCPPCPAPEAEGAPSVFLFPPKPKDTLMISRTPEVTCVVVDVSHEDPEVKFNWYVDGVEVHNAKTKPREEQYNSTYRVVSVLTVLHQDWLNGKEYKCKVSNKALPAPIEKTISKAKGQPREPQVYTLPPSREEMTKNQVSLTCLVKGFYPSDIAVEWESNGQPENNYKTTPPVLDSDGSFFLYSKLTVDKSRWQQGNVFSCSVMHEALHNHYTQKSLSLSPG light: not shown	–	2120	26.4	696	21.2	4.1 nM	350000 M⁻¹ s⁻¹	7.9 nM	0.0017 s⁻¹	210000 M⁻¹ s⁻¹	no binding (tested: <=10 RU, 100-10 nM)	no binding (tested: <=10 RU, 100-10 nM)	8700 nM	0.037 s⁻¹	4300 M⁻¹ s⁻¹	5500 nM	0.036 s⁻¹	6500 M⁻¹ s⁻¹	fold faster koff at pH 6.9 compared to pH 6.0 [14]: ≥ 10 fold; fold lower affinity at pH 6.45 compared to pH 6.0 [14]: ≥ 10 fold; fold lower affinity at pH 6.9 compared to pH 6.0 [14]: ≥ 100 fold; fold lower affinity at pH 7.4 compared to pH 6.0 [14]: ≥ 1000 fold; fold weaker KD at pH 6.9 compared to pH 6.0 [14]: ≥ 100 fold; selectivity for pH 6 over pH 7.4 in KD [14]: > 2000 fold; selectivity for pH 6 over pH 7.4 in koff [14]: > 10 fold
